Assay results as given in patent US20160046728.

Tested on: Ir-CPI (Ixodes ricinus Contact Phase Inhibitor), recombinant

| Substance | amidolytic activity on chromogenic substrate (protease:Ir-CPI 1:5) | activation of factor XII into factor XIIa by factor XIa (reconstituted system, purified factors, chromogenic substrate) | activation of factor XII into factor XIIa by kallikrein (reconstituted system, purified factors, chromogenic substrate) |
| --- | --- | --- | --- |
| factor IXa | The results obtained did not show any effect of Ir-CPI protein on the amidolytic activity of these factors | – | – |
| factor XIa | The results obtained did not show any effect of Ir-CPI protein on the amidolytic activity of these factors | Ir-CPI inhibits ... the activation of factor XII into factor XIIa by factor XIa | – |
| plasma kallikrein | The results obtained did not show any effect of Ir-CPI protein on the amidolytic activity of these factors | – | Ir-CPI did not inhibit the activation of factor XII into factor XIIa by kallikrein |
| thrombin | The results obtained did not show any effect of Ir-CPI protein on the amidolytic activity of these factors | – | – |
